From patent US20050221433A1
Where a chain is given by its changes, count along the chain named. Numbers in names are those of the source. One block for each binder: values may come before it.

Molecular target: recombinant human IL-18 (human) (UniProt Q14116)
Assay: cell-based or functional assay

Chain of recombinant human IL-18 (human) (Q14116 37-193 limits assumed): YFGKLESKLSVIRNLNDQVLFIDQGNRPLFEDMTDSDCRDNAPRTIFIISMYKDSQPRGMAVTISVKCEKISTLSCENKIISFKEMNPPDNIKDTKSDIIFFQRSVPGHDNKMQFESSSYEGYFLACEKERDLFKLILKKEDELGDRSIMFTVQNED

IC50 (M), HEK293/NFkB-luciferase bioassay: 1.67e-10 M
B1: mIL18BPd (C45S).mFc (Fc fusion, not shown: a dimerising Fc or GST)
chain: TSAPQTTATVLTGSSKDPSSSWSPAVPTKQYPALDVIWPEKEVPLNGTLTLSCTACSRFPYFSILYWLGNGSFIEHLPGRLKEGHTSREHRNTSTWLHRALVLEELSPTLRSTNFSCLFVDPGQVAQYHIILAQLWDGLKTAPPPSQETLSSHSPVSRSAGPGVA

IC50 (M), HEK293/NFkB-luciferase bioassay: 9.6e-11 M
B2: mIL18BPd.mFc (Fc fusion, not shown: a dimerising Fc or GST)
chain: B1 chain with S19C
